{"source": "the supplement of paper PMC10567573", "parents": {"B1": {"name": "KRT33B (parent)", "chain": "PAVDLNQVLNETRNQYEALVETNR"}}}
{"variants_of": "B1", "test": "protein stability index of a GFP-peptide fusion (GPS, HEK-293T) (PSI 1-6); higher = more stable", "conditions": "c terminus: a fixed tail appended"}
{"variant": "PAVDLAQVLNETRNQYEALVETNR", "note": "[N6A]", "protein stability index": 2.77}
{"variant": "PAVDLCQVLNETRNQYEALVETNR", "note": "[N6C]", "protein stability index": 2.56}
{"variant": "PAVDLDQVLNETRNQYEALVETNR", "note": "[N6D]", "protein stability index": 2.8}
{"variant": "PAVDLEQVLNETRNQYEALVETNR", "note": "[N6E]", "protein stability index": 1.97}
{"variant": "PAVDLFQVLNETRNQYEALVETNR", "note": "[N6F]", "protein stability index": 2.31}
{"variant": "PAVDLGQVLNETRNQYEALVETNR", "note": "[N6G]", "protein stability index": 4.3}
{"variant": "PAVDLHQVLNETRNQYEALVETNR", "note": "[N6H]", "protein stability index": 2.97}
{"variant": "PAVDLIQVLNETRNQYEALVETNR", "note": "[N6I]", "protein stability index": 2.05}
{"variant": "PAVDLKQVLNETRNQYEALVETNR", "note": "[N6K]", "protein stability index": 3.27}
{"variant": "PAVDLLQVLNETRNQYEALVETNR", "note": "[N6L]", "protein stability index": 1.71}
{"variant": "PAVDLMQVLNETRNQYEALVETNR", "note": "[N6M]", "protein stability index": 1.34}
{"variant": "PAVDLPQVLNETRNQYEALVETNR", "note": "[N6P]", "protein stability index": 4.33}
{"variant": "PAVDLQQVLNETRNQYEALVETNR", "note": "[N6Q]", "protein stability index": 2.83}
{"variant": "PAVDLRQVLNETRNQYEALVETNR", "note": "[N6R]", "protein stability index": 3.13}
{"variant": "PAVDLSQVLNETRNQYEALVETNR", "note": "[N6S]", "protein stability index": 3.54}
{"variant": "PAVDLTQVLNETRNQYEALVETNR", "note": "[N6T]", "protein stability index": 3.43}
{"variant": "PAVDLVQVLNETRNQYEALVETNR", "note": "[N6V]", "protein stability index": 2.43}
{"variant": "PAVDLWQVLNETRNQYEALVETNR", "note": "[N6W]", "protein stability index": 1.82}
{"variant": "PAVDLYQVLNETRNQYEALVETNR", "note": "[N6Y]", "protein stability index": 2.64}
{"variant": "PAVDLNAVLNETRNQYEALVETNR", "note": "[Q7A]", "protein stability index": 3.27}
{"variant": "PAVDLNCVLNETRNQYEALVETNR", "note": "[Q7C]", "protein stability index": 3.57}
{"variant": "PAVDLNDVLNETRNQYEALVETNR", "note": "[Q7D]", "protein stability index": 3.73}
{"variant": "PAVDLNEVLNETRNQYEALVETNR", "note": "[Q7E]", "protein stability index": 3.11}
{"variant": "PAVDLNFVLNETRNQYEALVETNR", "note": "[Q7F]", "protein stability index": 3.79}
{"variant": "PAVDLNGVLNETRNQYEALVETNR", "note": "[Q7G]", "protein stability index": 4.59}
{"variant": "PAVDLNHVLNETRNQYEALVETNR", "note": "[Q7H]", "protein stability index": 4.38}
{"variant": "PAVDLNIVLNETRNQYEALVETNR", "note": "[Q7I]", "protein stability index": 3.55}
{"variant": "PAVDLNKVLNETRNQYEALVETNR", "note": "[Q7K]", "protein stability index": 3.91}
{"variant": "PAVDLNLVLNETRNQYEALVETNR", "note": "[Q7L]", "protein stability index": 4.06}
{"variant": "PAVDLNMVLNETRNQYEALVETNR", "note": "[Q7M]", "protein stability index": 4.24}
{"variant": "PAVDLNNVLNETRNQYEALVETNR", "note": "[Q7N]", "protein stability index": 4.33}
{"variant": "PAVDLNPVLNETRNQYEALVETNR", "note": "[Q7P]", "protein stability index": 4.78}
{"variant": "PAVDLNRVLNETRNQYEALVETNR", "note": "[Q7R]", "protein stability index": 3.95}
{"variant": "PAVDLNSVLNETRNQYEALVETNR", "note": "[Q7S]", "protein stability index": 4.01}
{"variant": "PAVDLNTVLNETRNQYEALVETNR", "note": "[Q7T]", "protein stability index": 2.97}
{"variant": "PAVDLNVVLNETRNQYEALVETNR", "note": "[Q7V]", "protein stability index": 3.86}
{"variant": "PAVDLNWVLNETRNQYEALVETNR", "note": "[Q7W]", "protein stability index": 4.22}
{"variant": "PAVDLNYVLNETRNQYEALVETNR", "note": "[Q7Y]", "protein stability index": 3.83}
{"variant": "PAVDLNQALNETRNQYEALVETNR", "note": "[V8A]", "protein stability index": 3.84}
{"variant": "PAVDLNQCLNETRNQYEALVETNR", "note": "[V8C]", "protein stability index": 3.71}
{"variant": "PAVDLNQDLNETRNQYEALVETNR", "note": "[V8D]", "protein stability index": 4.77}
{"variant": "PAVDLNQELNETRNQYEALVETNR", "note": "[V8E]", "protein stability index": 4.7}
{"variant": "PAVDLNQFLNETRNQYEALVETNR", "note": "[V8F]", "protein stability index": 3.78}
{"variant": "PAVDLNQGLNETRNQYEALVETNR", "note": "[V8G]", "protein stability index": 4.91}
{"variant": "PAVDLNQHLNETRNQYEALVETNR", "note": "[V8H]", "protein stability index": 4.05}
{"variant": "PAVDLNQILNETRNQYEALVETNR", "note": "[V8I]", "protein stability index": 2.98}
{"variant": "PAVDLNQKLNETRNQYEALVETNR", "note": "[V8K]", "protein stability index": 4.56}
{"variant": "PAVDLNQLLNETRNQYEALVETNR", "note": "[V8L]", "protein stability index": 1.45}
{"variant": "PAVDLNQMLNETRNQYEALVETNR", "note": "[V8M]", "protein stability index": 2.66}
{"variant": "PAVDLNQNLNETRNQYEALVETNR", "note": "[V8N]", "protein stability index": 4.83}
{"variant": "PAVDLNQPLNETRNQYEALVETNR", "note": "[V8P]", "protein stability index": 5.14}
{"variant": "PAVDLNQQLNETRNQYEALVETNR", "note": "[V8Q]", "protein stability index": 4.64}
{"variant": "PAVDLNQRLNETRNQYEALVETNR", "note": "[V8R]", "protein stability index": 4.93}
{"variant": "PAVDLNQSLNETRNQYEALVETNR", "note": "[V8S]", "protein stability index": 4.43}
{"variant": "PAVDLNQTLNETRNQYEALVETNR", "note": "[V8T]", "protein stability index": 4.41}
{"variant": "PAVDLNQWLNETRNQYEALVETNR", "note": "[V8W]", "protein stability index": 3.42}
{"variant": "PAVDLNQYLNETRNQYEALVETNR", "note": "[V8Y]", "protein stability index": 2.49}
{"variant": "PAVDLNQVANETRNQYEALVETNR", "note": "[L9A]", "protein stability index": 5.16}
{"variant": "PAVDLNQVCNETRNQYEALVETNR", "note": "[L9C]", "protein stability index": 4.91}
{"variant": "PAVDLNQVDNETRNQYEALVETNR", "note": "[L9D]", "protein stability index": 4.52}
{"variant": "PAVDLNQVENETRNQYEALVETNR", "note": "[L9E]", "protein stability index": 4.93}
{"variant": "PAVDLNQVFNETRNQYEALVETNR", "note": "[L9F]", "protein stability index": 4.25}
{"variant": "PAVDLNQVGNETRNQYEALVETNR", "note": "[L9G]", "protein stability index": 4.76}
{"variant": "PAVDLNQVHNETRNQYEALVETNR", "note": "[L9H]", "protein stability index": 4.2}
{"variant": "PAVDLNQVINETRNQYEALVETNR", "note": "[L9I]", "protein stability index": 3.55}
{"variant": "PAVDLNQVKNETRNQYEALVETNR", "note": "[L9K]", "protein stability index": 5.09}
{"variant": "PAVDLNQVMNETRNQYEALVETNR", "note": "[L9M]", "protein stability index": 4.13}
{"variant": "PAVDLNQVNNETRNQYEALVETNR", "note": "[L9N]", "protein stability index": 5.13}
{"variant": "PAVDLNQVPNETRNQYEALVETNR", "note": "[L9P]", "protein stability index": 4.72}
{"variant": "PAVDLNQVQNETRNQYEALVETNR", "note": "[L9Q]", "protein stability index": 4.24}
{"variant": "PAVDLNQVRNETRNQYEALVETNR", "note": "[L9R]", "protein stability index": 4.36}
{"variant": "PAVDLNQVSNETRNQYEALVETNR", "note": "[L9S]", "protein stability index": 4.96}
{"variant": "PAVDLNQVTNETRNQYEALVETNR", "note": "[L9T]", "protein stability index": 4.61}
{"variant": "PAVDLNQVVNETRNQYEALVETNR", "note": "[L9V]", "protein stability index": 4.65}
{"variant": "PAVDLNQVWNETRNQYEALVETNR", "note": "[L9W]", "protein stability index": 4.32}
{"variant": "PAVDLNQVYNETRNQYEALVETNR", "note": "[L9Y]", "protein stability index": 4.53}
{"variant": "PAVDLNQVLAETRNQYEALVETNR", "note": "[N10A]", "protein stability index": 2.98}
{"variant": "PAVDLNQVLCETRNQYEALVETNR", "note": "[N10C]", "protein stability index": 3.59}
{"variant": "PAVDLNQVLDETRNQYEALVETNR", "note": "[N10D]", "protein stability index": 3.3}
{"variant": "PAVDLNQVLEETRNQYEALVETNR", "note": "[N10E]", "protein stability index": 2.09}
{"variant": "PAVDLNQVLFETRNQYEALVETNR", "note": "[N10F]", "protein stability index": 2.44}
{"variant": "PAVDLNQVLGETRNQYEALVETNR", "note": "[N10G]", "protein stability index": 4.34}
{"variant": "PAVDLNQVLHETRNQYEALVETNR", "note": "[N10H]", "protein stability index": 3.74}
{"variant": "PAVDLNQVLIETRNQYEALVETNR", "note": "[N10I]", "protein stability index": 2.64}
{"variant": "PAVDLNQVLKETRNQYEALVETNR", "note": "[N10K]", "protein stability index": 2.74}
{"variant": "PAVDLNQVLLETRNQYEALVETNR", "note": "[N10L]", "protein stability index": 2.56}
{"variant": "PAVDLNQVLMETRNQYEALVETNR", "note": "[N10M]", "protein stability index": 2.23}
{"variant": "PAVDLNQVLPETRNQYEALVETNR", "note": "[N10P]", "protein stability index": 4.84}
{"variant": "PAVDLNQVLQETRNQYEALVETNR", "note": "[N10Q]", "protein stability index": 2.58}
{"variant": "PAVDLNQVLRETRNQYEALVETNR", "note": "[N10R]", "protein stability index": 2.76}
{"variant": "PAVDLNQVLSETRNQYEALVETNR", "note": "[N10S]", "protein stability index": 3.31}
{"variant": "PAVDLNQVLTETRNQYEALVETNR", "note": "[N10T]", "protein stability index": 2.67}
{"variant": "PAVDLNQVLVETRNQYEALVETNR", "note": "[N10V]", "protein stability index": 3.22}
{"variant": "PAVDLNQVLWETRNQYEALVETNR", "note": "[N10W]", "protein stability index": 2.37}
